Assay results: patent US7939292B2, “Modified heparinase III and methods of sequencing therewith” (Massachusetts Institute of Technology, priority 2000, dated 2011)
Residue numbers refer to the chain shown, from its start. Names and notes keep the numbering of the source. “Also recorded” adds a separate entry of the source.

B1: H539A: recombinant heparinase III with histidine 539 mutated to alanine (protein)
chain: MTTKIFKRIIVFAVIALSSGNILAQSSSITRKDFDHINLEYSGLEKVNKAVAAGNYDDAAKALLAYYREKSKAREPDFSNAEKPADIRQPIDKVTREMADKALVHQFQPHKGYGYFDYGKDINWQMWPVKDNEVRWQLHRVKWWQAMALVYHATGDEKYAREWVYQYSDWARKNPLGLSQDNDKFVWRPLEVSDRVQSLPPTFSLFVNSPAFTPAFLMEFLNSYHQQADYLSTHYAEQGNHRLFEAQRNLFAGVSFPEFKDSPRWRQTGISVLNTEIKKQVYADGMQFELSPIYHVAAIDIFLKAYGSAKRVNLEKEFPQSYVQTVENMIMALISISLPDYNTPMFGDSWITDKNFRMAQFASWARVFPANQAIKYFATDGKQGKAPNFLSKALSNAGFYTFRSGWDKNATVMVLKASPPGEFHAQPDNGTFELFIKGRNFTPDAGVFVYSGDEAIMKLRNWYRQTRIHSTLTLDNQNMVITKARQNKWETGNNLDVLTYTNPSYPNLDHQRSVLFINKKYFLVIDRAIGEATGNLGVAWQLKEDSNPVFDKTKNRVYTTYRDGNNLMIQSLNADRTSLNEEEGKVSYVYNKELKRPAFVFEKPKKNAGTQNFVSIVYPYDGQKAPEISIRENKGNDFEKGKLNLTLTINGKQQLVLVP
B2: H510A: recombinant heparinase III with histidine 510 mutated to alanine (protein)
chain: B1 chain with H510A, A539H
B3: H241A: recombinant heparinase III with histidine 241 mutated to alanine (protein)
chain: B1 chain with H241A, A539H
B4: H225A: recombinant heparinase III with histidine 225 mutated to alanine (protein)
chain: B1 chain with H225A, A539H
B5: H234A: recombinant heparinase III with histidine 234 mutated to alanine (protein)
chain: B1 chain with H234A, A539H
B6: H152A: recombinant heparinase III with histidine 152 mutated to alanine (protein)
chain: B1 chain with H152A, A539H
B7: H469A: recombinant heparinase III with histidine 469 mutated to alanine (protein)
chain: B1 chain with H469A, A539H
B8: H424A: recombinant heparinase III with histidine 424 mutated to alanine (protein)
chain: B1 chain with H424A, A539H
B9: H36A: recombinant heparinase III with histidine 36 mutated to alanine (protein)
chain: B1 chain with H36A, A539H
B10: H295A: recombinant heparinase III with histidine 295 mutated to alanine (protein)
chain: B1 chain with H295A, A539H
B11: heat inactivated heparinase III: heat inactivated heparinase III used as control (protein, UniProt Q59289 25-659, looked up)
Heparin-sulfate lyase: QSSSITRKDFDHINLEYSGLEKVNKAVAAGNYDDAAKALLAYYREKSKAREPDFSNAEKPADIRQPIDKVTREMADKALVHQFQPHKGYGYFDYGKDINWQMWPVKDNEVRWQLHRVKWWQAMALVYHATGDEKYAREWVYQYSDWARKNPLGLSQDNDKFVWRPLEVSDRVQSLPPTFSLFVNSPAFTPAFLMEFLNSYHQQADYLSTHYAEQGNHRLFEAQRNLFAGVSFPEFKDSPRWRQTGISVLNTEIKKQVYADGMQFELSPIYHVAAIDIFLKAYGSAKRVNLEKEFPQSYVQTVENMIMALISISLPDYNTPMFGDSWITDKNFRMAQFASWARVFPANQAIKYFATDGKQGKAPNFLSKALSNAGFYTFRSGWDKNATVMVLKASPPGEFHAQPDNGTFELFIKGRNFTPDAGVFVYSGDEAIMKLRNWYRQTRIHSTLTLDNQNMVITKARQNKWETGNNLDVLTYTNPSYPNLDHQRSVLFINKKYFLVIDRAIGEATGNLGVHWQLKEDSNPVFDKTKNRVYTTYRDGNNLMIQSLNADRTSLNEEEGKVSYVYNKELKRPAFVFEKPKKNAGTQNFVSIVYPYDGQKAPEISIRENKGNDFEKGKLNLTLTINGKQQLVLVP
modifications: heat inactivated

System: not listed separately
Assay: Heparinase III kinetic assay of r-heparinase III and histidine mutants
Assay type: biochemical
Conditions: not given
Protocol: The activity of heparinase III was measured using a UV 232 nm assay similar to those reported for heparinase I and heparinase II (Godavarti, R., Cooney, C. L., Langer, R., and Sasisekharan, R. (1996) Biochemistry 35, 6846-52; Shriver, Z., Hu, Y., and Sasisekharan, R. (1998) J. Biol. Chem. 273, 10160-67; and Lohse, D. and Linhardt, R. J. (1992) J. Biol. Chem. 267, 781-87). Briefly, the increase in absorbance at 232 nm as a function of time was monitored under saturating substrate conditions. All assays were performed with heparan sulfate at a concentration of 2 mg/ml in 50 mM sodium phosphate, pH 7.6. The temperature for enzymatic activity measurements was kept constant at 35° C.
In parallel to the mapping studies and to confirm the results of the chemical modification experiments, each of the thirteen histidine residues present in heparinase III was mutated to alanine. The recombinant heparinase III mutant proteins were expressed, purified, and assessed for enzymatic activity towards heparan sulfate (Table 2).

| Molecule | changes in recombinant protein yield, enzyme activity, or kinetic parameters compared with r-heparinase III |
| --- | --- |
| B1 | no significant changes |
| B2 | no significant changes |
| B3 | no significant changes |
| B4 | no significant changes |
| B5 | no significant changes |
| B6 | no significant changes |
| B7 | no significant changes |
| B8 | no significant changes |
| B9 | no significant changes |

Same assay, conditions: heparan sulfate

| Molecule | kcat |
| --- | --- |
| B1 | 132 s⁻¹ |
| B3 | 5 s⁻¹ |
| B4 | 22 s⁻¹ |
| B5 | 23 s⁻¹ |
| B6 | 83 s⁻¹ |
| B7 | 100 s⁻¹ |
| B8 | 24 s⁻¹ |
| B9 | 86 s⁻¹ |

Same assay, conditions: heparan sulfate; calculated assuming a molecular weight of 15 kDa

| Molecule | Km |
| --- | --- |
| B1 | 92 µM |
| B3 | 16 µM |
| B4 | 80 µM |
| B5 | 75 µM |
| B6 | 58 µM |
| B7 | 71 µM |
| B8 | 59 µM |
| B9 | 98 µM |

Same assay, conditions: kinetic data and exhaustive digest profile

| Molecule | enzymatic activity towards heparan sulfate |
| --- | --- |
| B10 | completely inactive; also recorded: no enzymatic activity |
| B2 | completely inactive; also recorded: no enzymatic activity |

System: B16BL6 melanoma
Assay: Primary tumor growth of B16BL6 melanoma in mice treated with heparinases
Assay type: in vivo
Conditions: day 15
From the text: Heparinases I and III, which have very distinct substrate specificities for cleaving HLGAGs, were employed as tools to investigate the role of HLGAGs in tumor growth and metastasis. While heparinase I cleaves at the highly sulfated regions of HLGAGs, heparinase III only cleaves at the under-sulfated regions of the polysaccharide chain, thereby rendering these enzymes powerful tools to investigate in vivo and in vitro roles of HLGAGs, in development, morphogenesis, angiogenesis etc. To examine the roles of HLGAGs in tumor growth and metastasis, we used B16BL6 melanoma as a model system and treated tumor-bearing mice with either heparinases I or III to investigate both primary tumor growth as well as tumor metastasis. Consistent with the current paradigm, heparinase I accelerated tumor growth (FIG. 8). At a dosage of 0.5 mg/kg/day of heparinase I, tumor growth was increased by about 39%. […] Inhibition of primary tumor growth by heparinase III was first observed at 2 mg/kg per day. Tumor growth was inhibited by 73% at 12 mg/kg per day, the maximum dosage tested in the study (FIG. 8).
Mice, 15 days after tumor implantation with B16BL6 melanoma, were examined. 4×10^5 log growth phase B16BL6 melanoma cells in 0.1 ml PBS were injected to the flank of C57BL/6 mice on day 1. Daily injection of 0.1 ml of PBS, heat inactivated hep III or active heparinase III (2 mg/ml, recombinantly expressed, purified, buffer exchanged with PBS, and concentrated) started at the day 4 and continued throughout the experiment. At day 7, osmotic pumps (100 μl capacity delivering at 0.5 μl per hour) containing PBS or 3 mg/ml hep III were implanted subcutaneously at a place remote from the tumor site. Mice were sacrificed at day 15.
FIG. 8 depicts the tumor volume of the tumors isolated from the mice described above. Tumor volume was measured daily after day 7 with a caliper and calculated with the formula [volume=0.52×(width)^2×(length)].

| Molecule | tumor mass upon visual inspection compared with active Hep III |
| --- | --- |
| B11 | significantly larger tumor masses |

Same assay, conditions: mouse, in vivo

| Molecule | tumor growth curves compared with PBS treated mice |
| --- | --- |
| B11 | comparable growth curves |
